Assay results from US20220221455A1 (GlaxoSmithKline, published 2022).

Biological target: T1, PE-PilA fusion protein LVL-735 (Haemophilus influenzae)
T1 construct: also called PE-PilA drug substance; PE-PilA DS
T1 chain: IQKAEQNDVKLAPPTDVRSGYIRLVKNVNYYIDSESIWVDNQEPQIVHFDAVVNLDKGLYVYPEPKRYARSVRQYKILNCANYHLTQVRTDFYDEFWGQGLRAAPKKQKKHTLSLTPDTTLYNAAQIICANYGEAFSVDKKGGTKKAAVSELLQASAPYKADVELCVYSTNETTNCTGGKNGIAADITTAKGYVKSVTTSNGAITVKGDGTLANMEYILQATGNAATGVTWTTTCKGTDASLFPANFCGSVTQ
Experiment: HDX-MS, antibody/antigen complex at molar ratio 1:1

B1: PEPilA/3 mAb (antibody, V domains shown)
VH: QGQLQQSGPELVKPGASVKMSCKASGYTFTDYVISWVKQRIGQGLEWIGEIHPGSGSIHYNEKFKGKATLTADKSSNTAYMQLSSLTSEDSAVYFCARRGLRRPWFAYWGQGTLVTVSA
VL: DIVLTQSPASLAVSLGQRATISCRASKSVSTSGYSYMHWFQQKPGQPPKLLIYLASNLESGVPARFSGSGSGTDFTLNIHPVEEEDAATYYCQHSRELPLTFGAGTKLELK
notes: Mouse anti-PilA monoclonal antibody; The isotype appears only as 'optionally an IgG2A' in an embodiment; It was biotinylated when used as detection antibody in the sandwich ELISA; also called mAb PEPilA/3; PilA mAb
- binding result: binds
